The source of these data is patent publication US20240043563A1.

A word on the EC50: it is the midpoint of the concentration-response curve.

In test [1] the target is cynomolgus monkey MASP-2 of cynomolgus monkey serum (cynomolgus monkey). As to the kind of experiment: cell-based or functional assay.
The target in test [2] is Fc-hMASP-2A-CCS (human) [IgG part: P01857]. As to the kind of experiment: ELISA according to Example 5, plate coated with Fc-hMASP-2A-CCS. In general terms: ELISA stands for enzyme-linked immunosorbent assay.
Sequence of Fc-hMASP-2A-CCS (human) [IgG part: P01857] (P01857 other isoform, or with tags, fused parts or gaps limits assumed, form in doubt): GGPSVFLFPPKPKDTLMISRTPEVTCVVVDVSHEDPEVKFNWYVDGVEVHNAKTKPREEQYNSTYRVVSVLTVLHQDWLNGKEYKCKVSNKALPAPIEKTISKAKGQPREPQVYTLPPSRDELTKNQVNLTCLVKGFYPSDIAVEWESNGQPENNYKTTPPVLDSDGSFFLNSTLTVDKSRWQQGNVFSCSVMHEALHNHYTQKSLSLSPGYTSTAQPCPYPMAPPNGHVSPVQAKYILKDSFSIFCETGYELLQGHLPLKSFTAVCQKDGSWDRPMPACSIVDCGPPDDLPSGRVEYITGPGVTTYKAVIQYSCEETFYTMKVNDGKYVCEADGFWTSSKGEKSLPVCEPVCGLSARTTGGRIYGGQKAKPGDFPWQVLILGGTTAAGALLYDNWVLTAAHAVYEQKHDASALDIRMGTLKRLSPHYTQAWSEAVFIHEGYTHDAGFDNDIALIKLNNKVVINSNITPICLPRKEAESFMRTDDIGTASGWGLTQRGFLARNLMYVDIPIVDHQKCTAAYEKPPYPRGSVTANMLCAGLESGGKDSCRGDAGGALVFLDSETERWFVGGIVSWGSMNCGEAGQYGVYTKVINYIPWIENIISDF

In turn, Narsoplimab (antibody) gave an IC50 of inhibition of MASP-2-catalyzed C4 cleavage in 90% cynomolgus monkey serum in test [1] of 94 nM. The EC50 in test [2] was 0.227 nM.
